Measurements as given in patent US20100093014A1, “SCREENING FOR BONE ANABOLIC FACTORS” (NORDIC BIOSCIENCE IMAGING A/S, priority 2007, published 2010).

B1: Wnt3A: positive control for the TCF/LEF luciferase reporter (protein, UniProt P56704 19-352, looked up)
Protein Wnt-3a: SYPIWWSLAVGPQYSSLGSQPILCASIPGLVPKQLRFCRNYVEIMPSVAEGIKIGIQECQHQFRGRRWNCTTVHDSLAIFGPVLDKATRESAFVHAIASAGVAFAVTRSCAEGTAAICGCSSRHQGSPGKGWKWGGCSEDIEFGGMVSREFADARENRPDARSAMNRHNNEAGRQAIASHMHLKCKCHGLSGSCEVKTCWWSQPDFRAIGDFLKDKYDSASEMVVEKHRESRGWVETLRPRYTYFKVPTERDLVYYEASPNFCEPNPETGSFGTRDRTCNVSSHGIDGCDLLCCGRGHNARAERRREKCRCVFHWCCYVSCQECTRVYDVHTCK
B2: DKK1: Wnt inhibitor (protein, UniProt O94907 32-266, looked up)
Dickkopf-related protein 1: TLNSVLNSNAIKNLPPPLGGAAGHPGSAVSAAPGILYPGGNKYQTIDNYQPYPCAEDEECGTDEYCASPTRGGDAGVQICLACRKRRKRCMRHAMCCPGNYCKNGICVSSDQNHFRGEIEETITESFGNDHSTLDGYSRRTTLSSKMYHTKGQEGSVCLRSSDCASGLCCARHFWSKICKPVLKEGQVCTKHRRKGSHGLEIFQRCYCGEGLSCRIQKDHHQASNSSRLHTCQRH

Tested on: TCF/LEF response elements
Assay: TOPflash luciferase reporter system (TCF/LEF response elements) in UMR-106 cells
Assay type: cell-based, rat
Source text: We transiently infected UMR-106 cells (a rat sarcoma derived cell line) with a luciferase reporter system TOPflash containing 8 TCF/LEF response elements placed in the promoter region of the luciferase reporter gene.
To investigate the effect of secreted signals from osteoclasts we collected conditioned medium from osteoclasts cultured either on bone or on plastic, and compared their ability to induce activation of cells transiently transfected with the TCF/LEF reporter system to that of non-conditioned osteoclast culture medium. The cells were then treated for 24 hours with either control compounds, vehicle or the different conditioned media, after which the cells were lysed and the Luciferase activity was measured by a […] assay.

| Molecule | TCF/LEF activation (luciferase activity) (treated for 24 hours) | inhibition of TCF/LEF activation induced by conditioned medium from osteoclasts on bone (24 hours) | inhibition of TCF/LEF activation induced by signal from non-resorbing osteoclasts on plastic (24 hours) | inhibition of Wnt3A-induced TCF/LEF activation (activation by Wnt3A) |
| --- | --- | --- | --- | --- |
| B1 | induces a strong activation | – | – | – |
| B2 | – | inhibited | again was inhibited | inhibits this activation |
